The values below come from patent CN115536746A (NANJING SANHOME PHARMACEUTICAL CO LTD, dated 2022).

First the molecules themselves.
B1: HuC94-31 (antibody, V domains shown)
VH: EVQLLESGGGLVQPGGSLRLSCAASGFTFSTSAMSWVRQAPGKGLEWVATISSGGDYTYYSDNVKGRFTISRDNSKSTLYLQMNSLRAEDTAVYYCTLGYDEADYWGQGSLLTVSS
VL: DIQMTQSPSSLSASVGDRVTITCRASQDISNYLNWYQQKPGKAPKLLIYYTSRLHSGVPSRFSGSGSGTDYTFTISSLQPEDIATYYCQQGDTFPWTFGGGTKLEIK
notes: also called HuC94-31-biotin; 抗CRTAM人源化抗体HuC94-31
B2: HuC124-42 (antibody, V domains shown)
VH: QVQLVQSGAEVKKPGSSVKVSCKASGYSFSNYWIEWVRQAPGQGLEWIGEILPGVPTIYYNAKFKDRVTFTADKSTSTAYMELSSLRSEDTAVYYCSRDPWFAYWGQGTLVTVSA
VL: EIVLTQSPATLSVSPGERATFSCRASQSIGTSLHWFQQKPGQAPRLLIKYASQSISGIPARFSGSGSGTEFTLTISSVQSEDFAVYYCQQSNNWPFTFGGGTKLEIK
notes: also called HuC124-42-biotin; 抗CRTAM人源化抗体HuC124-42
B3: HuC110-34 (antibody, V domains shown)
VH: QVQLVQSGAEVKKPGASVKVSCKASGYTFTNNDINWVKQAPGQRLEWIGWIYPRDGSTQYNEKFRGRATITVDTSASTAYMELSSLRSEDTAVYFCARGLVDYWGQGTLVTVSS
VL: DVVMTQSPDSLAVSLGERATINCRSSQSLVHSNKNTYLHWYLQKPGQPPKLLIYKVSNRFSGVPDRFSGSGSGTDFTLTISSLQAEDVAVYYCSQSTRVPWTFGGGTKLEIK
notes: also called HuC110-34-biotin; 抗CRTAM人源化抗体HuC110-34

This assay addresses T1, cCRTAM-His (猴源CRTAM蛋白胞外区 + His标签) (猴源 (食蟹猴, cynomolgus monkey)).
T1 construct: also called cCRTAM-His蛋白; 食蟹猴CRTAM
T1 chain: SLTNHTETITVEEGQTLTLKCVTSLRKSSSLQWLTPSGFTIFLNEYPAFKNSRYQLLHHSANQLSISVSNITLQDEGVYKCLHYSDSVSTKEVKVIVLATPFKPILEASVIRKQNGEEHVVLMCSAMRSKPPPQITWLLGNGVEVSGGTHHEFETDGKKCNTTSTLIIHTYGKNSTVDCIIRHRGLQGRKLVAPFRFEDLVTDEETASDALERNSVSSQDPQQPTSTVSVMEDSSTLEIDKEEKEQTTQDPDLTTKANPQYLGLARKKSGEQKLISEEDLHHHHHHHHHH
Put plainly: ELISA, cCRTAM-His coated at 2 μg/mL. For orientation: In an ELISA, binding on a coated surface is turned into a signal by an enzyme label.
The EC50 is the concentration needed to bring the measured effect to its halfway point. As to B1, the EC50 is 4.68 ng/mL. On to B2, for which the EC50 was 4.78 ng/mL.

Turning to B3, the EC50 was 8.17 ng/mL.
